The chains are these.
B1: ABF-46: parent cMET mAb, mouse antibody; sequences in Table 1 (antibody, V domains shown)
VH: EVKLVESGGGLVQPGGSLRLSCATSGFTFTDYYMSWVRQPPGKALEWLGFIRNKANGYTTEYSASVKGRFTISRDNSQSILYLQMDTLRAEDSATYYCARDNWFAYWGQGTLVTVSA
VL: DILMTQSPSSLTVSAGEKVTMSCKSSQSLLASGNQNNYLAWHQQKPGRSPKMLIIWASTRVSGVPDRFIGSGSGTDFTLTINSVQAEDLAVYYCQQSYSAPLTFGAGTKLELK
B2: Nova-5097: parent cMET mAb; sequences in Table 1 (antibody, V domains shown)
VH: QVQLVQSGAEVKKPGSSVKVSCKASGGTFSSYAISWVRQAPGQGLEWMGGIDPFGTANYAQKFQGRVTITADESTSTAYMELSSLRSEDTAVYYCARVYQDVWGQGTLVTVSS
VL: DIVMTQSPDSLAVSLGERATINCRSSQSILYGINNNFLGWYQQKPGQPPKLLIYWASTRESGVPDRFSGSGSGTDFTLTISSLQAEDVAVYYCQQYAFGWTFGQGTKVEIK
B3: Nova-5185: parent cMET mAb; sequences in Table 1 (antibody, V domains shown)
VH: QVQLVQSGAEVKKPGSSVKVSCKASGGTFSSYAISWVRQAPGQGLEWMGGIDPIMGTEYAQKFQGRVTITADESTSTAYMELSSLRSEDTAVYYCARVYQDVWGQGTLVTVSS
VL: DIVMTQSPDSLAVSLGERATINCRSSQSILYGINNNFLGWYQQKPGQPPKLLIYWASTRESGVPDRFSGSGSGTDFTLTISSLQAEDVAVYYCQQYAYEPNTFGQGTKVEIK
B4: Nova-5098: parent cMET mAb; sequences in Table 1 (antibody, V domains shown)
VH: QVQLVQSGAEVKKPGSSVKVSCKASGGTFSSYAISWVRQAPGQGLEWMGGIDPFGTANYAQKFQGRVTITADESTSTAYMELSSLRSEDTAVYYCARVYQDVWGQGTLVTVSS
VL: DIVMTQSPDSLAVSLGERATINCRSSQSILYGINNNFLGWYQQKPGQPPKLLIYWASTRESGVPDRFSGSGSGTDFTLTISSLQAEDVAVYYCLQYSDEPWTFGQGTKVEIK
B5: Nova-5091: parent cMET mAb; sequences in Table 1 (antibody, V domains shown)
VH: QVQLVQSGAEVKKPGASVKVSCKASGYTFTGYYMNWVRQAPGQGLEWMGIINPWTGNTNYAQKFQGRVTMTRDTSISTAYMELSSLRSEDTAVYYCARDPGFFYYTPSDLWGQGTLVTVSS
VL: DIELTQPPSVSVAPGQTARISCSGDSIGNKYVHWYQQKPGQAPVLVIYADSDRPSGIPERFSGSNSGNTATLTISGTQAEDEADYYCQSYAHYHDIWVFGGGTKLTVLG
B6: Onartuzumab: parent cMET mAb; sequences in Table 1 (antibody, V domains shown)
VH: EVQLVESGGGLVQPGGSLRLSCAASGYTFTSYWLHWVRQAPGKGLEWVGMIDPSNSDTRFNPNFKDRFTISADTSKNTAYLQMNSLRAEDTAVYYCATYRSYVTPLDYWGQGTLVTVSS
VL: DIQMTQSPSSLSASVGDRVTITCKSSQSLLYTSSQKNYLAWYQQKPGKAPKLLIYWASTRESGVPSRFSGSGSGTDFTLTISSLQPEDFATYYCQQYYAYPWTFGQGTKVEIK

The test system of the test is EGFR and cMET co-expressed tumor cell lines (A431, A549, MDA-MB-468, MKN-45, NCI-H441, NCI-H1975). Briefly: Binding activity of parent mAbs by flow cytometry. As to conditions: flow cytometry on tumor cell lines, FIGS. 1A-1F, Table 4; compared with telisotuzumab (teliso). As to the method: EGFR and cMET co-expressed tumor cell lines including A431 (ATCC® CRL-1555), A549 (ATCC® CCL-185, Provided by Procell), MDA-MB-468 (ATCC® HTB-132, Provided by Procell), MKN-45 (CL-0292, Provided by Procell), NCI-H441 (ATCC® HTB-174, Provided by COBIOER), NCI-H1975 (ATCC® CRL-5908, Provided by Procell) were selected for evaluating antibody binding activity by flow cytometry.
A431 was cultured with DMEM medium (Gibco, Cat #C11995500BT) containing 10% FBS. MDA-MB-468, MKN-45, NCI-H441 and NCI-H1975 were cultured with RPMI 1640 medium (Gibco, Cat #11875093) containing 10% FBS. A549 was cultured with F12K medium (Gibco, Cat #21127030) containing 10% FBS. Each antibody was incubated with different cell lines (1×10^5 cells/well) for 30 min in 0.2 mL FACS buffer (1×PBS with 0.1% BSA) at 4° C. After wash, cells were incubated with 100 μL PE-conjugated anti human Fc (Abcam, Ab98596, 1:500 dilution) for 30 min at 4° C. After wash with PBS, cells were resuspended in FACS buffer and analyzed by flow cytometer (Beckman, CytoFLEX).
For the molecule B1, the “binding activity of parent cMET mAbs (summary)” value is “Lower activity than teliso, mouse antibody, filed in 2010; inferior choice”.
To B2 belongs “Stronger binding than teliso, no clinical validation”.
In the case of B3, the “binding activity of parent cMET mAbs (summary)” value is on record as “Stronger binding than teliso, seems to have off-target binding”.
In the case of B4 it was “Stronger binding than teliso, no clinical validation”; in that of B5, “No binding activity”; in that of B6, “Stronger binding than teliso, tumor promoting activity due to bivalent binding”.

The record behind these values is US20250381289A1, “EGFR AND C-MET BISPECIFIC BINDING AGENTS, CONJUGATES THEREOF AND METHODS OF USING THE SAME” (GENMAB A/S, priority 2024, published 2025).
